Target: T1, DS-SILY20 (decorin mimic, SILY peptide-dermatan sulfate conjugate) (about 20 SILY peptides conjugated via BMPH to dermatan sulfate)
T1 chain: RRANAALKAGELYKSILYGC
Test: solid-phase binding assay

Kd: 55.1 nM
B1: IFN-γ (protein)
chain: QDPYVKEAENLKKYFNAGHSDVADNGTLFLGILKNWKEESDRKIMQSQIVSFYFKLFKNFKDDQSIQKSVETIKEDMNVKFFNSNKKKRDDFEKLTNYSVTDLNVQRKAIHELIQVMAELSPAAKTGKRKRSQMLFRG

— PMC4052849 (2014)
